The source of these data is the Human Domainome abundance scans (Beltran et al. 2025).

± gives the uncertainty stated by the source.

The data set can be described thus: abundance fitness (aPCA) (normalised: wild type 0, dead -1); higher = more abundant; growth selection in yeast, the domain comes from the species named. The following applies: Homo sapiens.
In turn, “Lipoamide acyltransferase component of branched-chain alpha-keto acid dehydrogenase complex, mitochondrial A173C, P11182” registered an abundance fitness of -0.163 ± 0.092.

As for “Lipoamide acyltransferase component of branched-chain alpha-keto acid dehydrogenase complex, mitochondrial A173D, P11182”, the abundance fitness was -0.296 ± 0.067. Consider “Lipoamide acyltransferase component of branched-chain alpha-keto acid dehydrogenase complex, mitochondrial A173E, P11182”, for which the abundance fitness was -0.219 ± 0.07.

“Lipoamide acyltransferase component of branched-chain alpha-keto acid dehydrogenase complex, mitochondrial A173F, P11182” registered an abundance fitness of -0.439 ± 0.096. Turning to “Lipoamide acyltransferase component of branched-chain alpha-keto acid dehydrogenase complex, mitochondrial A173G, P11182”, the abundance fitness was -0.287 ± 0.036. The substance “Lipoamide acyltransferase component of branched-chain alpha-keto acid dehydrogenase complex, mitochondrial A173K, P11182” gave an abundance fitness of -0.391 ± 0.068. “Lipoamide acyltransferase component of branched-chain alpha-keto acid dehydrogenase complex, mitochondrial A173L, P11182” yielded an abundance fitness of -0.411 ± 0.058.

On to “Lipoamide acyltransferase component of branched-chain alpha-keto acid dehydrogenase complex, mitochondrial A173M, P11182”, for which the abundance fitness was -0.135 ± 0.057. The result for “Lipoamide acyltransferase component of branched-chain alpha-keto acid dehydrogenase complex, mitochondrial A173N, P11182” reads -0.424 ± 0.14; that for “Lipoamide acyltransferase component of branched-chain alpha-keto acid dehydrogenase complex, mitochondrial A173P, P11182”, -0.406 ± 0.087.

The substance “Lipoamide acyltransferase component of branched-chain alpha-keto acid dehydrogenase complex, mitochondrial A173Q, P11182” showed an abundance fitness of -0.441 ± 0.048. Substance “Lipoamide acyltransferase component of branched-chain alpha-keto acid dehydrogenase complex, mitochondrial A173R, P11182” came in with an abundance fitness of -0.608 ± 0.04. The figure for “Lipoamide acyltransferase component of branched-chain alpha-keto acid dehydrogenase complex, mitochondrial A173S, P11182” is -0.186 ± 0.046. In turn, “Lipoamide acyltransferase component of branched-chain alpha-keto acid dehydrogenase complex, mitochondrial A173T, P11182” displayed an abundance fitness of -0.05 ± 0.042. In turn, “Lipoamide acyltransferase component of branched-chain alpha-keto acid dehydrogenase complex, mitochondrial A173V, P11182” had an abundance fitness of -0.059 ± 0.054. “Lipoamide acyltransferase component of branched-chain alpha-keto acid dehydrogenase complex, mitochondrial A173W, P11182” registered an abundance fitness of -0.279 ± 0.071. For the substance “Lipoamide acyltransferase component of branched-chain alpha-keto acid dehydrogenase complex, mitochondrial A173Y, P11182”, the abundance fitness is -0.153 ± 0.19. Regarding “Lipoamide acyltransferase component of branched-chain alpha-keto acid dehydrogenase complex, mitochondrial A176C, P11182”, the abundance fitness was -0.173 ± 0.051.

Consider “Lipoamide acyltransferase component of branched-chain alpha-keto acid dehydrogenase complex, mitochondrial A176D, P11182”, for which the abundance fitness is -0.047 ± 0.043.

For the substance “Lipoamide acyltransferase component of branched-chain alpha-keto acid dehydrogenase complex, mitochondrial A176E, P11182”, the abundance fitness was -0.043 ± 0.06. The substance “Lipoamide acyltransferase component of branched-chain alpha-keto acid dehydrogenase complex, mitochondrial A176G, P11182” displayed an abundance fitness of -0.074 ± 0.038.

The substance “Lipoamide acyltransferase component of branched-chain alpha-keto acid dehydrogenase complex, mitochondrial A176H, P11182” showed an abundance fitness of -0.128 ± 0.06. The result for “Lipoamide acyltransferase component of branched-chain alpha-keto acid dehydrogenase complex, mitochondrial A176I, P11182” reads -0.115 ± 0.089.

As for “Lipoamide acyltransferase component of branched-chain alpha-keto acid dehydrogenase complex, mitochondrial A176K, P11182”, the abundance fitness is -0.312 ± 0.065. The figure for “Lipoamide acyltransferase component of branched-chain alpha-keto acid dehydrogenase complex, mitochondrial A176L, P11182” is -0.21 ± 0.046. In the case of “Lipoamide acyltransferase component of branched-chain alpha-keto acid dehydrogenase complex, mitochondrial A176M, P11182”, the abundance fitness was -0.127 ± 0.043. “Lipoamide acyltransferase component of branched-chain alpha-keto acid dehydrogenase complex, mitochondrial A176N, P11182” came in with an abundance fitness of -0.113 ± 0.097. Regarding “Lipoamide acyltransferase component of branched-chain alpha-keto acid dehydrogenase complex, mitochondrial A176P, P11182”, the abundance fitness was -0.203 ± 0.043.

“Lipoamide acyltransferase component of branched-chain alpha-keto acid dehydrogenase complex, mitochondrial A176Q, P11182” displayed an abundance fitness of 0.017 ± 0.058. The figure for “Lipoamide acyltransferase component of branched-chain alpha-keto acid dehydrogenase complex, mitochondrial A176R, P11182” is -0.143 ± 0.036; for “Lipoamide acyltransferase component of branched-chain alpha-keto acid dehydrogenase complex, mitochondrial A176S, P11182” it is -0.036 ± 0.039; for “Lipoamide acyltransferase component of branched-chain alpha-keto acid dehydrogenase complex, mitochondrial A176T, P11182” it is -0.067 ± 0.051.

In the case of “Lipoamide acyltransferase component of branched-chain alpha-keto acid dehydrogenase complex, mitochondrial A176V, P11182”, the abundance fitness is -0.168 ± 0.041. With “Lipoamide acyltransferase component of branched-chain alpha-keto acid dehydrogenase complex, mitochondrial A176W, P11182”, the abundance fitness was -0.473 ± 0.045. The figure for “Lipoamide acyltransferase component of branched-chain alpha-keto acid dehydrogenase complex, mitochondrial A176Y, P11182” is -0.16 ± 0.06. Consider “Lipoamide acyltransferase component of branched-chain alpha-keto acid dehydrogenase complex, mitochondrial D197A, P11182”, for which the abundance fitness was -0.235 ± 0.036. The figure for “Lipoamide acyltransferase component of branched-chain alpha-keto acid dehydrogenase complex, mitochondrial D197C, P11182” is -0.319 ± 0.095. The result for “Lipoamide acyltransferase component of branched-chain alpha-keto acid dehydrogenase complex, mitochondrial D197E, P11182” reads -0.098 ± 0.05. The figure for “Lipoamide acyltransferase component of branched-chain alpha-keto acid dehydrogenase complex, mitochondrial D197F, P11182” is -0.26 ± 0.17; for “Lipoamide acyltransferase component of branched-chain alpha-keto acid dehydrogenase complex, mitochondrial D197H, P11182” it is 0.025 ± 0.11; for “Lipoamide acyltransferase component of branched-chain alpha-keto acid dehydrogenase complex, mitochondrial D197I, P11182” it is -1.31 ± 0.15. In the case of “Lipoamide acyltransferase component of branched-chain alpha-keto acid dehydrogenase complex, mitochondrial D197K, P11182”, the abundance fitness is -0.23 ± 0.048. The substance “Lipoamide acyltransferase component of branched-chain alpha-keto acid dehydrogenase complex, mitochondrial D197L, P11182” showed an abundance fitness of -0.337 ± 0.055. In the case of “Lipoamide acyltransferase component of branched-chain alpha-keto acid dehydrogenase complex, mitochondrial D197M, P11182”, the abundance fitness is -0.382 ± 0.082.

“Lipoamide acyltransferase component of branched-chain alpha-keto acid dehydrogenase complex, mitochondrial D197P, P11182”: the abundance fitness was -0.76 ± 0.13. The result for “Lipoamide acyltransferase component of branched-chain alpha-keto acid dehydrogenase complex, mitochondrial D197Q, P11182” reads -0.183 ± 0.044.
